Measurements taken from patent US20200010567A1 (NEURIMMUNE, published 2020).

Biological target: T1, BSA-coupled (GP)15 DPR protein peptide (bovine, conjugated via a bifunctional linker (SMCC) to bovine serum albumin)
T1 construct: also called BSA-(GP)15
Assay: indirect ELISA, BSA-coupled peptide coated, antibody titrated [also D00014 FIG. 3H]
Protocol: In brief, dipeptide repeat proteins were synthesized and purified by Schafer-N(Copenhagen, Denmark): (GA)₁₅: H-CHHHHHH(GA)₁₅-OH; (GP)₁₅: H-C(GP)₁₅-OH; (GR)₁₅: H-C(GR)₁₅-OH; (PA)₁₅: H-C(PA)₁₅-OH; (PR)₁₅: H—C(PR)₁₅-OH. DPR protein peptides were then conjugated via a bifunctional linker (SMCC) to bovine serum albumin (BSA). 96-well microplates (Corning Incorporated, Corning, USA) were coated with BSA-coupled or -uncoupled dipeptide repeat protein peptides at a concentration of either 5 μg/ml or 20 μg/ml in coating buffer (15 mM Na₂CO₃, 35 mM NaHCO₃, pH 9.42). Non-specific binding sites were blocked for 1 h at room temperature with PBS/0.1% Tween®-20 containing 2% BSA (Sigma-Aldrich, Buchs, Switzerland). Primary antibodies were diluted to the indicated concentrations and incubated 1 h at room temperature, followed by incubation with a donkey anti-human IgG Fcγ-specific antibody conjugated with HRP (Jackson ImmunoResearch Laboratories, Inc., West Grove, USA). Binding was determined by measurement of HRP activity in a standard colorimetric assay. EC₅₀ values were estimated by non-linear regression using GraphPad Prism software (San Diego, USA).

T1 sequence (peptide, as listed by the source limits assumed, chain 1 of 2): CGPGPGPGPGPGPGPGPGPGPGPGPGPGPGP
T1 sequence (P02769 25-607 limits assumed, chain 2 of 2): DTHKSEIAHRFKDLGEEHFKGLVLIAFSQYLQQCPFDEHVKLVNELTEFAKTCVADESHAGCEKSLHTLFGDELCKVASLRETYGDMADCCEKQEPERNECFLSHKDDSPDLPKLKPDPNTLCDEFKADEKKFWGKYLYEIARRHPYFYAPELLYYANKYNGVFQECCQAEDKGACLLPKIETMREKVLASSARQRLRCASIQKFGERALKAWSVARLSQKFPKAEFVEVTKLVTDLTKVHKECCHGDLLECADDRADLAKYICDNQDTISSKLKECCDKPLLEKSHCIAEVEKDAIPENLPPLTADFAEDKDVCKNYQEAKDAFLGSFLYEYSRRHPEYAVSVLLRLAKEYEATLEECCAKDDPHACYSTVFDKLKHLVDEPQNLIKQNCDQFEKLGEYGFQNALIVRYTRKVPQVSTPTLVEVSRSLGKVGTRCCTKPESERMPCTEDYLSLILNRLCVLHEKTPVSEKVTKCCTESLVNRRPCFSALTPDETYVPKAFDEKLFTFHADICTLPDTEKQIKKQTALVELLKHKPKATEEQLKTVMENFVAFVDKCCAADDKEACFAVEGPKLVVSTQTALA

B1: NI-308.46E9 (antibody, V domains shown)
VH: QVQLQESGPGLVKPSETLSLTCTVSGASISGSTYYWGWIRQPPGKGLEYIGRIYYSGSTYYNPSLKSRATISVDTSKNQLSLTLSSVTAADTAVYYCVRPFYAGSGNSPFDYWGQGTLVTVSS
VL: CEIVLTQSPATVSVSPGERATLSCRASQSVSTNLAWYQQKPGQPPRLLIYGASTRATGIPARFSGSGSGAEFTLTISSLQSEDFVVYYCQQYNNWPPAFGGGTKVEIK
notes: Recombinant complete human IgG1, kappa
  EC50: 12.1 nM
